Key:
Assay in all cases: SEC + other: SDS-PAGE
[1] = target: IgG1-Fc variant S354P (soluble) (human)
[2] = target: IgG1-Fc variant S400F (soluble) (human)
[3] = target: IgG1-Fc variant Q418L (soluble) (human)
[4] = target: IgG1-Fc variant Q438K (soluble) (human)
[5] = target: IgG1-Fc variant T437I (soluble) (human)
[6] = target: IgG1-Fc variant N421D (soluble) (human)
[7] = target: IgG1-Fc variant K360Q (soluble) (human)
[8] = target: IgG1-Fc variant Q438R (soluble) (human)
[9] = target: IgG1-Fc variant K360E (soluble) (human)
[10] = target: IgG1-Fc variant K392R (soluble) (human)
[11] = target: IgG1-Fc variant S424T (soluble) (human)
[12] = target: IgG1-Fc variant Q347E (soluble) (human)

IgG1-Fc variant S354P (soluble) (domain or fragment)
stoichiometry N [1]: 2

IgG1-Fc variant S400F (soluble) (domain or fragment)
stoichiometry N [2]: 2

IgG1-Fc variant Q418L (soluble) (domain or fragment)
stoichiometry N [3]: 2

IgG1-Fc variant Q438K (soluble) (domain or fragment)
stoichiometry N [4]: 2

IgG1-Fc variant T437I (soluble) (domain or fragment)
stoichiometry N [5]: 2

IgG1-Fc variant N421D (soluble) (domain or fragment)
stoichiometry N [6]: 2

IgG1-Fc variant K360Q (soluble) (domain or fragment)
stoichiometry N [7]: 2

IgG1-Fc variant Q438R (soluble) (domain or fragment)
stoichiometry N [8]: 2

IgG1-Fc variant K360E (soluble) (domain or fragment)
stoichiometry N [9]: 2

IgG1-Fc variant K392R (soluble) (domain or fragment)
stoichiometry N [10]: 2

IgG1-Fc variant S424T (soluble) (domain or fragment)
stoichiometry N [11]: 2

IgG1-Fc variant Q347E (soluble) (domain or fragment)
stoichiometry N [12]: 2

From article PMC3787792
